The values that follow come from patent US20230181639A1 (published 2023).

In assay [1] the target is T1, EBV latent membrane protein LMP2 (wild-type epitope, LSK; as in SEQ ID NO: 27) peptide on HLA-A*11:01 (human).
T1 peptide: SSCSSCPLSK
As to the kind of experiment: multimer staining.

The target of assay [2] is T2, EBV latent membrane protein LMP2 (mutant-type epitope, LTK; as in SEQ ID NO: 28) peptide on HLA-A*11:01 (human).
T2 peptide: SSCSSCPLTK
As to the kind of experiment: multimer staining.

B1: E318 (TCR, V domains shown)
Valpha: GENVEQHPSTLSVQEGDSAVIKCTYSDSASNYFPWYKQELGKRPQLIIDIRSNVGEKKDQRIAVTLNKTAKHFSLHITETQPEDSAVYFCAASNRDDKIIFGKGTRLHILP
Vbeta: DAGVIQSPRHEVTEMGQEVTLRCKPISGHNSLFWYRQTMMRGLELLIYFNNNVPIDDSGMPEDRFSAKMPNASFSTLKIQPSEPRDSAVYFCASSLGAGHLWGYTFGSGTRLTVV
For the molecule B1, the binding result in assay [1] and in assay [2] was “recognises” throughout.

B2: E316 (TCR, V domains shown)
Valpha: AQKITQTQPGMFVQEKEAVTLDCTYDTSDQSYGLFWYKQPSSGEMIFLIYQGSYDEQNATEGRYSLNFQKARKSANLVISASQLGDSAMYFCAMVSGAGGGADGLTFGKGTHLIIQP
Vbeta: DGGITQSPKYLFRKEGQNVTLSCEQNLNHDAMYWYRQDPGQGLRLIYYSQIVNDFQKGDIAEGYSVSREKKESFPLTVTSAQKNPTAFYLCASSIGVGLSNTEAFFGQGTRLTVV
For B2, the binding result in assay [1] and in assay [2] was “recognises” in each case.

B3: E149 (TCR, V domains shown)
Valpha: GIQVEQSPPDLILQEGANSTLRCNFSDSVNNLQWFHQNPWGQLINLFYIPSGTKQNGRLSATTVATERYSLLYISSSQTTDSGVYFCAVVDNNDMRFGAGTRLTVKP
Vbeta: DTEVTQTPKHLVMGMTNKKSLKCEQHMGHRAMYWYKQKAKKPPELMFVYSYEKLSINESVPSRFSPECPNSSLLNLHLHALQPEDSALYLCASSPGRWYEQFFGPGTRLTVL
Regarding B3, the binding result in assay [1] and in assay [2] was “recognises” each time.

B4: E315 (TCR, V domains shown)
Valpha: KQEVTQIPAALSVPEGENLVLNCSFTDSAIYNLQWFRQDPGKGLTSLLLIQSSQREQTSGRLNASLDKSSGRSTLYIAASQPGDSATYLCAGKTSYDKVIFGPGTSLSVIP
Vbeta: EAGVAQSPRYKIIEKRQSVAFWCNPISGHATLYWYQQILGQGPKLLIQFQNNGVVDDSQLPKDRFSAERLKGVDSTLKIQPAKLEDSAVYLCASSVFPTSVEQYFGPGTRLTVT
Turning to B4, the binding result in assay [1] and in assay [2] was “recognises” each time.
